The values below are quoted from earlier work in patent US20200069786A1, “COMPOSITION AND PROCESS FOR PREPARING VACCINE” (TREOS BIO ZRT., priority 2018, published 2020).

Where two headings read alike, the source gives them in different places.

This data set has as its system TSA.
Setting [1] is: TSA expression rate in Cervical cancer.
Setting [2] is: TSA expression rate in LEUKEMIAS
Where [3] appears, read: TSA expression rate in LUNG cancer.
Setting [4] is: TSA expression rate in MELANOMA
[5] abbreviates: TSA expression rate in PROSTATE cancer.
Setting [6] is: TSA expression rate in Esophageal.
[7] abbreviates: TSA expression rate in GASTRIC cancer.
[8] abbreviates: TSA expression rate in HEAD and NECK.

B1: ADAM2 (protein, UniProt Q99965 175-735, looked up)
Disintegrin and …: DFAKYIEMHVIVEKQLYNHMGSDTTVVAQKVFQLIGLTNAIFVSFNITIILSSLELWIDENKIATTGEANELLHTFLRWKTSYLVLRPHDVAFLLVYREKSNYVGATFQGKMCDANYAGGVVLHPRTISLESLAVILAQLLSLSMGITYDDINKCQCSGAVCIMNPEAIHFSGVKIFSNCSFEDFAHFISKQKSQCLHNQPRLDPFFKQQAVCGNAKLEAGEECDCGTEQDCALIGETCCDIATCRFKAGSNCAEGPCCENCLFMSKERMCRPSFEECDLPEYCNGSSASCPENHYVQTGHPCGLNQWICIDGVCMSGDKQCTDTFGKEVEFGPSECYSHLNSKTDVSGNCGISDSGYTQCEADNLQCGKLICKYVGKFLLQIPRATIIYANISGHLCIAVEFASDHADSQKMWIKDGTSCGSNKVCRNQRCVSSSYLGYDCTTDKCNDRGVCNNKKHCHCSASYLPPDCSVQSDLWPGGSIDSGNFPPVAIPARLPERRYIENIYHSKPMRWPFFLFIPFFIIFCVLIAIMVKVNFQRKKWRTEDYSSDEQPESESEPKG
With B1, the “TSA Expression Rate (ER)” value is 0% (BREAST) and 0% (OVARIAN). Also, the “Expression Rate (ER) %” value is, setting by setting: (TSA expression rate in CRC) 0%; under setting [1], 0%; (TSA expression rate in Kidney) 9%; under setting [2], 6%; under setting [3], 1%; under setting [4], 3%. Besides, the “Expression Rate (ER) %” value under setting [5] is given as 25%.

B2: CCDC62 (protein, UniProt Q6P9F0 1-684, looked up)
Coiled-coil domain-containing …: MNPPAAFLAGRQNIGSEVEISTIEKQRKELQLLIGELKDRDKELNDMVAVHQQQLLSWEEDRQKVLTLEERCSKLEGELHKRTEIIRSLTKKVKALESNQMECQTALQKTQLQLQEMAQKATHSSLLSEDLEARNETLSNTLVELSAQVGQLQAREQALTTMIKLKDKDIIEAVNHIADCSGKFKMLEHALRDAKMAETCIVKEKQDYKQKLKALKIEVNKLKEDLNEKTTENNEQREEIIRLKQEKSCLHDELLFTVEREKRKDELLNIAKSKQERTNSELHNLRQIYVKQQSDLQFLNFNVENSQELIQMYDSKMEESKALDSSRDMCLSDLENNHPKVDIKREKNQKSLFKDQKFEAMLVQQNRSDKSSCDECKEKKQQIDTVFGEKSVITLSSIFTKDLVEKHNLPWSLGGKTQIEPENKITLCKIHTKSPKCHGTGVQNEGKQPSETPTLSDEKQWHDVSVYLGLTNCPSSKHPEKLDVECQDQMERSEISCCQKNEACLGESGMCDSKCCHPSNFIIEAPGHMSDVEWMSIFKPSKMQRIVRLKSGCTCSESICGTQHDSPASELIAIQDSHSLGSSKSALREDETESSSNKKNSPTSLLIYKDAPAFNEKASIVLPSQDDFSPTSKLQRLLAESRQMVTDLELSTLLPISHENLTGSATNKSEVPEESAQKNTFVSY
Turning to B2, the “TSA Expression Rate (ER)” value (HCC) is 0% and the “TSA Expression Rate (ER)” value (OVARIAN) is given as 0%. In addition, the “Expression Rate (ER) %” value runs as follows: (TSA expression rate in CRC) 13%; under setting [6], 21%; under setting [7], 7%; under setting [8], 12%; (TSA expression rate in Kidney) 25%; under setting [5], 22%.

B3: CCDC110 (protein, UniProt Q8TBZ0 1-833, looked up)
Coiled-coil domain-containing …: MSPEKQHREEDEVDSVLLSASKILNSSEGVKESGCSDTEYGCIAESENQIQPQSALKVLQQQLESFQALRMQTLQNVSMVQSEISEILNKSIIEVENPQFSSEKNLVFGTRIEKDLPTENQEENLSMEKSHHFEDSKTLHSVEEKLSGDSVNSLPQSVNVPSQIHSEDTLTLRTSTDNLSSNIIIHPSENSDILKNYNNFYRFLPTAPPNVMSQADTVILDKSKITVPFLKHGFCENLDDICHSIKQMKEELQKSHDGEVALTNELQTLQTDPDVHRNGKYDMSPIHQDKMNFIKEENLDGNLNEDIKSKRISELEALVKKLLPFRETVSKFHVHFCRKCKKLSKSEMHRGKKNEKNNKEIPITGKNITDLKFHSRVPRYTLSFLDQTKHEMKDKERQPFLVKQGSIISENEKTSKVNSVTEQCVAKIQYLQNYLKESVQIQKKVMELESENLNLKSKMKPLIFTTQSLIQKVETYEKQLKNLVEEKSTIQSKLSKTEEYSKECLKEFKKIISKYNVLQGQNKTLEEKNIQLSLEKQQMMEALDQLKSKEHKTQSDMAIVNNENNRMSIEMEAMKTNILLIQDEKEMLEKKTHQLLKEKSSLGNELKESQLEIIQLKEKERLAKTEQETLLQIIETVKDEKLNLETTLQESTAARQIMEREIENIQTYQSTAEENFLQEIKNAKSEASIYKNSLSEIGKECEMLSKMVMETKTDNQILKEELKKHSQENIKFENSISRLTEDKILLENYVRSIENERDTLEFEMRHLQREYLSLSDKICNQHNDPSKTTYISRREKFHFDNYTHEDTSSPQSRPLASDLKGYFKVKDRTLKHH
Take B3: the “TSA Expression Rate (ER)” value is, setting by setting: (HCC) 50%; (LUNG) 50%; (PANCREATIC) 100%. The “Expression Rate (ER) %” value by setting is: (TSA expression rate in CRC) 50%; under setting [7], 100%; under setting [8], 67%; under setting [4], 60%.

B4: SPO11 (protein, UniProt Q9Y5K1 1-396, looked up)
Meiotic recombination protein …: MAFAPMGPEASFFDVLDRHRESLLAALRRGGREPPTGGSRLASSSEVLASIENIIQDIITSLARNEAPAFTIDNRSSWENIKFEDSVGLQMVSHCTTRKIKSDSPKSAQKFSLILKILSMIYKLVQSNTYATKRDIYYTDSQLFGNQTVVDNIINDISCMLKVSRRSLHILSTSKGLIAGNLRYIEEDGTKVNCTCGATAVAVPSNIQGIRNLVTDAKFVLIVEKDATFQRLLDDNFCNKLSPCIMITGKGVPDLNTRLLVKKLWDTFHVPVFTLVDADPHGIEIMCIYKYGSMSMSFEAHHLTVPAIRWLGLLPSDLKRLNVPKDSLIPLTKRDQMKLDSILRRPYVTCQPFWRKEMEIMADSKMKAEIQALTFLSSDYLSRVYLPNKLKFGGWI
For B4, the “TSA Expression Rate (ER)” value (BRAIN) is given as 12%, the “TSA Expression Rate (ER)” value (BREAST) is 0%, the “TSA Expression Rate (ER)” value (OVARIAN) is on record as 0% and the “TSA Expression Rate (ER)” value (THYROID) is listed as 0%. Further, the “Expression Rate (ER) %” value by setting is: (TSA expression rate in CRC) 0%; under setting [1], 33%; under setting [8], 0%; (TSA expression rate in Kidney) 0%; under setting [3], 0%; under setting [4], 6%. Moreover, the “Expression Rate (ER) %” value under setting [5] is on record as 0%.

B5: SSX-3 (protein, UniProt Q99909 1-188, looked up)
Protein SSX3: MNGDDTFARRPTVGAQIPEKIQKAFDDIAKYFSKEEWEKMKVSEKIVYVYMKRKYEAMTKLGFKAILPSFMRNKRVTDFQGNDFDNDPNRGNQVQRPQMTFGRLQGIFPKIMPKKPAEEGNVSKEVPEASGPQNDGKQLCPPGKPTTSEKINMISGPKRGEHAWTHRLRERKQLVIYEEISDPEEDDE
For the molecule B5, the “TSA Expression Rate (ER)” value runs as follows: (BRAIN) 0%; (BREAST) 0%; (OVARIAN) 0%; (PANCREATIC) 0%; (THYROID) 0%. Also, the “Expression Rate (ER) %” value (TSA expression rate in CRC) is given as 0%, the “Expression Rate (ER) %” value (TSA expression rate in Kidney) is given as 0% and the “Expression Rate (ER) %” value under setting [2] is given as 4%.

B6: CTCFL (protein, UniProt Q8NI51 1-663, looked up)
Transcriptional repressor …: MAATEISVLSEQFTKIKELELMPEKGLKEEEKDGVCREKDHRSPSELEAERTSGAFQDSVLEEEVELVLAPSEESEKYILTLQTVHFTSEAVELQDMSLLSIQQQEGVQVVVQQPGPGLLWLEEGPRQSLQQCVAISIQQELYSPQEMEVLQFHALEENVMVASEDSKLAVSLAETTGLIKLEEEQEKNQLLAERTKEQLFFVETMSGDERSDEIVLTVSNSNVEEQEDQPTAGQADAEKAKSTKNQRKTKGAKGTFHCDVCMFTSSRMSSFNRHMKTHTSEKPHLCHLCLKTFRTVTLLRNHVNTHTGTRPYKCNDCNMAFVTSGELVRHRRYKHTHEKPFKCSMCKYASVEASKLKRHVRSHTGERPFQCCQCSYASRDTYKLKRHMRTHSGEKPYECHICHTRFTQSGTMKIHILQKHGENVPKYQCPHCATIIARKSDLRVHMRNLHAYSAAELKCRYCSAVFHERYALIQHQKTHKNEKRFKCKHCSYACKQERHMTAHIRTHTGEKPFTCLSCNKCFRQKQLLNAHFRKYHDANFIPTVYKCSKCGKGFSRWINLHRHSEKCGSGEAKSAASGKGRRTRKRKQTILKEATKGQKEAAKGWKEAANGDEAAAEEASTTKGEQFPGEMFPVACRETTARVKEEVDEGVTCEMLLNTMDK
Turning to B6, the “TSA Expression Rate (ER)” value is 9% (BRAIN); 74% (BREAST); 55% (HCC); 36% (LUNG); 82% (OVARIAN); 29% (PANCREATIC). The “Expression Rate (ER) %” value by setting is: (TSA expression rate in CRC) 80%; under setting [1], 32%; under setting [6], 56%; under setting [4], 27%; under setting [5], 98%.
